Laboratory results from US20210220472A1 (YISSUM RESEARCH DEVELOPMENT COMPANY OF THE HEBREW …, published 2021).

Key:
[1] = molecular target: human TIGIT expressed on cells (YTS-TIGIT transfectants, NK cells of healthy donors, CD8+ TILs) (human) (UniProt Q495A1); test: FACS blocking assay on YTS-TIGIT cells: antibody titrated against 2.5 pmole PVR-Fc, bound PVR-Fc detected
[2] = molecular target: human TIGIT expressed on cells (YTS-TIGIT transfectants, NK cells of healthy donors, CD8+ TILs) (human) (UniProt Q495A1); test: FACS on 75×10^3 YTS-TIGIT cells, serial dilutions 250 nM to 65 fM
[3] = molecular target: human TIGIT expressed on cells (YTS-TIGIT transfectants, NK cells of healthy donors, CD8+ TILs) (human) (UniProt Q495A1); test: FACS on YTS-TIGIT cells in the presence of 2.5 pmole PVR-Fc, bound antibody detected with anti-mouse IgG Alexa Fluor 647
[4] = molecular target: T1, human TIGIT expressed on cells (YTS-TIGIT transfectants, NK cells of healthy donors, CD8+ TILs) (human, UniProt Q495A1 22-244); test: FACS titration on YTS-TIGIT cells, fluorescence intensity against antibody concentration
T1 construct: whole, on cells; also called hTIGIT; T-cell immunoglobulin and ITIM domain
T1 sequence (looked up): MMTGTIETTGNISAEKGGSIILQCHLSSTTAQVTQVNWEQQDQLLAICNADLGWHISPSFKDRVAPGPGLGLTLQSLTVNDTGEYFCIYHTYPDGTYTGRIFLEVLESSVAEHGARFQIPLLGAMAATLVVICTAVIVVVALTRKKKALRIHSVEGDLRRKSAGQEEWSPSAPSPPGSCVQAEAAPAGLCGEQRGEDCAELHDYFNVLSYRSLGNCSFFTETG
Description: FIG. 6A. […] Background—staining of mIgG (grey filled histograms). Each panel represents a specific concentration of the antibodies as indicated. Y-axis of each panel is cell counts and X-axis is fluorescence intensity (FL1-H).

[5] = molecular target: T2, human TIGIT from two commercial sources (loaded on Biacore biosensor) (human, UniProt Q495A1 22-141); test: SPR (Biacore), human TIGIT on the biosensor; average of two commercial sources; average of the two TIGIT sources
T2 sequence (looked up): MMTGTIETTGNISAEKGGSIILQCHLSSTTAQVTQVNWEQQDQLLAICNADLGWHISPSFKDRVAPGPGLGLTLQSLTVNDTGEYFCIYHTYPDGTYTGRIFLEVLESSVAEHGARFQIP
Protocol: (§1) Surface plasmon resonance (SPR) Biosensor Biacore™ T100 (GE Healthcare) was used to determine Koff, Kon and KD between the antibodies and TIGIT.
(§2) Full binding kinetic analyses of the mAbs to human TIGIT from two sources were carried out using Biacore.

[6] = molecular target: T2, human TIGIT from two commercial sources …; test: SPR (Biacore), human TIGIT on the biosensor; one of two commercial sources; the other of two TIGIT sources (source not named)
Protocol: as §1, §2

[7] = molecular target: T2, human TIGIT from two commercial sources …; test: SPR (Biacore), human TIGIT on the biosensor; one of two commercial sources; one of two TIGIT sources (source not named)
Protocol: as §1, §2

| Molecule | MFI of bound PVR-Fc, antibody at 0.014 pmol [1] | MFI of bound PVR-Fc, antibody at 0.028 pmol [1] | MFI of bound PVR-Fc, antibody at 0.056 pmol [1] | MFI of bound PVR-Fc, antibody at 0.115 pmol [1] | MFI of bound PVR-Fc, antibody at 0.21 pmol [1] | MFI of bound PVR-Fc, antibody at 0.425 pmol [1] | lowest concentration at which cells were stained [2] | MFI of bound antibody at 0.014 pmol [3] | MFI of bound antibody at 0.028 pmol [3] | MFI of bound antibody at 0.056 pmol [3] | MFI of bound antibody at 0.115 pmol [3] | MFI of bound antibody at 0.21 pmol [3] | MFI of bound antibody at 0.425 pmol [3] | MFI of bound antibody at 0.85 pmol [3] | MFI of bound antibody at 27 pmol [3] | EC50 (read off the curve) [4] | Kd [5] | Kd [6] | Kd [7] |
| --- | --- | --- | --- | --- | --- | --- | --- | --- | --- | --- | --- | --- | --- | --- | --- | --- | --- | --- | --- |
| commercial anti-TIGIT antibody MBSA43 (eBioscience Cat#12-9500-42) | 34 | 27.1 | 22.6 | 12.6 | 7.8 | 4.5 | > 1950 fM | 64 | 88 | 150 | 224 | 302 | 325 | 380 | 445 | – | – | – | – |
| anti human TIGIT monoclonal antibody VSIG9#1 (antibody, V domains shown, Mouse monoclonal antibody from a hybridoma; It was detected with anti-mouse IgG; also called Vsig9.01; anti TIGIT-VSIG9#1) VH: QVQLQESGAELARPGASVKLSCKASGYTFTSYGISWVKQRTGQGLEWIGEIYPRSGNTYYNEKFKGKATLTADKSSSTAYMELSSLTSEDSAVYFCARKGPYYTKNEDYWGQGTILTVSS VL: DIQMTQSPASLAASVGETVTITCRASEHIYYSLAWYQQKQGKSPQLLIYNANSLEDGVPSRFSGSGSGTQYSMKINSMQPEDTATYFCKQAYDVPRTFGGGTKLEIKR | – | – | – | – | – | – | – | – | – | – | – | – | – | – | – | ~0.007 nM | 0.45 nM | 0.387 nM | 0.513 nM |
| anti human TIGIT monoclonal antibody 258-CS1#4 (antibody, V domains shown, Mouse monoclonal antibody from a hybridoma) VH: QVQLLQPGAELVKPGASVKLSCKASGYTFTIYCIHWVKQRPGQGLEWIGEISPSNGRTIYNEKFKNKATLTIDKSSTTAYMQLSSLTSEDSAVYCCAISDGYDGYYFDYWGQGTTLTVSS VL: DIQMTQSPSSLSASLGERVSLTCRASQEISGYLNWLQQKPDGTIKRLIYAASTLDSGVPKRFSGSRSGSDYSLTISRLESEDFADYYCLQYASYPRTFGGGTKLEIK | – | – | – | – | – | – | – | – | – | – | – | – | – | – | – | – | ~100 nM | 107 nM | 99.6 nM |
